The text below walks through data of the nanobody polyreactivity screen of Harvey et al. (2022).

A short description of the data set: yeast display, Sf9 membrane polyspecificity reagent, FACS + sequencing; frameworks hold sequencing errors. In a few lines: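 Synthetic nanobody libraries on Saccharomyces cerevisiae BJ5465 were galactose-induced for 36–48 hours, stained 1 hour at 4 °C with 10% biotinylated, detergent-solubilized Sf9 membrane reagent and enriched on streptavidin microbeads. FACS then separated cells into low and high (top ~1%) gates by anti-HA (expression) and streptavidin (reagent binding) fluorescence. Genes were colony-PCR amplified, MiSeq 2 × 250 sequenced and CDR-length filtered. A clone's polyreactivity label is that of its gate of origin.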
Take “QVQLVESVGCLVQAGGSHRLSCAASVFIFGANAMGWYRQAPGKESELVAAIRWSSGTTYYADSVKGRFTISRDNAKNTVYLQINSLKPEDTAVYYCAAGGLARTWYAYYYWGQGTQVTVSS”: the “polyreactivity (PSR sort gate)” value was “low polyreactivity”. As for “QVQLVESVGGIVQAGGSLRLSCAASGGICYEYAMGWYRQAPGKERELVATISFNVASTYADSVKGRFTISRDNAKNTVYLQMNSLKPEDTAVDYCIADTYWDRDSRYDYWGLGTQVTVSS”, the entry is “low polyreactivity”; as for “QVQLVESVGGIVQAGGSLRLSCAASGRTFTYNVMGWYRQAPGKEMELVAAITSGGSNYADSVKGRFTISRDNAKNTVYLQMNSLTPEDTAGYYCATDYYEDVTIGYDYWGQGTQVTVSS”, “low polyreactivity”; as for “QVQLVESVGGLDQAGGSLRLSCAASGSTFRYYVMGWYRQAPGKERELVAGITRGGSTNYADSVKGRFTISRENAKNTVYLQMNSLKPEDTAVYYCASRGGWKRPFGYQLQYDYWGQGTQLTVSS”, “high polyreactivity”. Turning to “QVQLVESVGGLDQAGGSLRLSGAASGIIFEGNALGWYRQAPGKERELVAAITSRGTRTYYADSVKGRFTISRDHAKNTVYLQMNSLKPEDTAVYYCAKLTSVTGKSGRYGYEYWGQGTQVTVSS”, the “polyreactivity (PSR sort gate)” value is “high polyreactivity”. Turning to “QVQLVESVGGLVQAGASLRLSCAPSGSTFPVYAMGWYRPAPGKESELVARISSGSSTNYADSVKGRFTISRDNAKITVYLQMNSLKPEDTAVYYCAAQTPRFVWQKGPLDSEDYWGQGTQVTVSS”, the “polyreactivity (PSR sort gate)” value was “high polyreactivity”.

With “QVQLVESVGGLVQAGGILRLSCAPSGSTSYGNAMGWYRQAPAKVRELVAAISSSGSSTYYADSVKGRFTISRDNAKNTVYLQMNSLKPEDTAVYYCNKRRSHSYYSRRFDYWGQGTQVTVSS”, the “polyreactivity (PSR sort gate)” value is on record as “high polyreactivity”. As for “QVQLVESVGGLVQAGGSHRLSCAASGRTFYQYTMGWSRQAPGTERELVAAITTSTGNTYYADSVKVRFTISRDNAKNTVYLQMNRLKPADTAVYECAADTVWPLDYWGLGTQVTVSS”, the “polyreactivity (PSR sort gate)” value is reported as “low polyreactivity”. As for “QVQLVESVGGLVQAGGSIRLSCAASGRIIDVNAMGWYRQAPGKERELVAAIRSGGRTNYADSVKGRFTISRDNAKNTVYLQMNSLKPEDTAVYYCGAVVWSSLDDYWGQGTQVTVSS”, the “polyreactivity (PSR sort gate)” value is on record as “high polyreactivity”. As for “QVQLVESVGGLVQAGGSLPLSCAASGLTFPSYAMGWYRQAPGKERELVAAISASGSSTYYADSVKGRFTISRDNAKNTVYLQMNSLKPEDTAVYYCNARKPATVSRYGYWGQGTQVTVSS”, the entry is “high polyreactivity”; as for “QVQLVESVGGLVQAGGSLRISCAASGRIFSGNAMGWYRQAPGKERELVASISRSGGRTRYADSVKGRFTISRDNAKNTVYLQMNSLKPEDTAVYYFTALSTQSYYFTYAGYDYWGQGTQVTVSS”, “high polyreactivity”; as for “QVQLVESVGGLVQAGGSLRISCAASGSIFAVYAMGWYRQAPGKESELVAAITSSGGRTYYADSVKGRFTISRDNAKNTVYFQMNSLKPEDTAVYYSATRGDTRWGLDYWGQATQVTVSS”, “high polyreactivity”. As for “QVQLVESVGGLVQAGGSLRISSAASGRIFTGNGMGWYRQAPGKERELVASITYNGGRTYYADSVKGRFTISRDNAKNTVYLQINSLKPEDTSVYYCNAGDYGFRYEYWGQGTQVTVSS”, the entry is “low polyreactivity”. As for “QVQLVESVGGLVQAGGSLRLICAASGFTFRRNAIGWYRQAPGKERELVAAITRSGGITYYADSVKGRFTISRDNAKNTVYLQMNSLKPEDTAVYYCNKQVTGAERFQGHGAYYWGQGTQVTVSS”, the entry is “high polyreactivity”.

Regarding “QVQLVESVGGLVQAGGSLRLICAASGSTFTWYAIGWNRQAPGKERELVADITWRDGSTYYADSVKGRFTISRDNAKNTVYLQMNSLKPEDTAVYYCAADYTYWGIFFGYWGQGTQVTVSS”, the “polyreactivity (PSR sort gate)” value is given as “high polyreactivity”. As for “QVQLVESVGGLVQAGGSLRLICDASGFTFYAYAIGWYRQAPGKERELVAAITYIGSTYYADSVKGRFTISRDNAKNTVYLQMNSLKPEETAVYYCAVEFLPSFNRYDYWGQGTQVTVSS”, the entry is “low polyreactivity”; as for “QVQLVESVGGLVQAGGSLRLRCGASGSIFYIYAMGWYRHAPGNERELVAAITRRAATYADSVKGRFTISRDNAKKTGYLQMNSLKPEDTAVYYCNADVQRLGRYDYWGQGTQVTVSS”, “high polyreactivity”. As for “QVQLVESVGGLVQAGGSLRLSCAASARIFRYYAMGWDRQAPGKERELVAAITWNGGSTYYADSVKGRFTISRDNAKNTVYVQLNSLKPEDTAVYYCAAVSYYTHYRLPYDYWGQGTQVTVSS”, the entry is “high polyreactivity”.

Consider “QVQLVESVGGLVQAGGSLRLSCAASGFIFRGYALGWYRQARGKEWELVAAMNAGDSTNYADSVKGRFTISRDTAKNTVYLQMNSLKPEETAVYYCAASIYAALNGGPGYDYWGQGTQVTVSS”, for which the “polyreactivity (PSR sort gate)” value is given as “low polyreactivity”.

Consider “QVQLVESVGGLVQAGGSLRLSCAASGFIFSVYAMGWNRQAPGKERELVAVISTSGGRTYYADSVKGRFTISRDNAKNTVYLQMNSLKPEDTAVDYCAADGFQYTLGNYYWGQGTQVTLSS”, for which the “polyreactivity (PSR sort gate)” value is reported as “high polyreactivity”. As for “QVQLVESVGGLVQAGGSLRLSCAASGFIFTLYTMGWYRHAPGKERELVADIDKNGSTYYADSVKGRFTISRDNAKITVYLRMYSLKPEDTAFYYCAADDRYRGNREDYWGQGTQVTVSS”, the entry is “low polyreactivity”; as for “QVQLVESVGGLVQAGGSLRLSCAASGFTFGPYAMGWYRQSPGKERELVAPIDDSGGNTYYADSVKGRFTISRDNAKNTVYLQMNSLKQEDTAVYYCNAFGADYYHVYPAEDYWGQGNQVTVSS”, “low polyreactivity”; as for “QVQLVESVGGLVQAGGSLRLSCAASGFTFPWNVMGRYRQAPGKERELVAAITYDGGGTYADSVKGRFTISRDNAKNTVYLQMNSLKPEDTAVYYCNADLINGEEYDYWGQGTQVTVSS”, “low polyreactivity”.

For the sequence “QVQLVESVGGLVQAGGSLRLSCAASGFTFTRYAMGWYRQAPGKERELVAAISSGGDTYYADSVKGRFTISRDNAKNTVYLQMNSLKPEDTAVYYCAADQSSLDYGNDYWGQGTQVTVSS”, the “polyreactivity (PSR sort gate)” value is “low polyreactivity”.

In the case of “QVQLVESVGGLVQAGGSLRLSCAASGGIFNTYAMGWYRQAPGKEREFVAANSRRGGGTYYADSVKGRFTISRDNAKNTVYLQMNSLKPEDTAVYYCNADVKRGSRGYGSDHWGQGTQVTVSS”, the “polyreactivity (PSR sort gate)” value is “high polyreactivity”. As for “QVQLVESVGGLVQAGGSLRLSCAASGGIFYKYAMGWYRQAPGNERELVAAITGRGGSTNYADSVKGRFTISRDNSKNTVYLQMNSLKPEDNAVYYCAADLRLYSSQDNDYWGQGTQVTVSS”, the “polyreactivity (PSR sort gate)” value is recorded as “low polyreactivity”. As for “QVQLVESVGGLVQAGGSLRLSCAASGIIFARYAMGWYRQAPGKERELVASISWSTGNTYYADSVKGRFTISRDNAKNTVYLQMNSLKPEDTAVYYCAATYRRKYWTMDYWGQGTQVTVSS”, the entry is “high polyreactivity”; as for “QVQLVESVGGLVQAGGSLRLSCAASGITFFGNAMGWYRQAPGKERELVASISNGDNTNYADSVKGRFTISRDNAKNTVYLQMNSLKPEDTAVYYCAAWLAYSSRYGYWGQGTQVSVSS”, “low polyreactivity”; as for “QVQLVESVGGLVQAGGSLRLSCAASGITLYGYAMGWYRQAPGKERELVAAISWRGGRTYYADSVKGRFTISRDNAKNTVYVQMNSLKPEDTAVYYCLARSYYNWYDYWGQGTQVTVSS”, “high polyreactivity”.

As for “QVQLVESVGGLVQAGGSLRLSCAASGLIFPWYAMGWYRQAPGKERELVAAIRWRGGGTYYADSVKGRFTISRDNAKNTVYLQMNSLKPEDTAVYYCAARRPAKGMGYWGQGTQVTVSS”, the “polyreactivity (PSR sort gate)” value was “high polyreactivity”. As for “QVQLVESVGGLVQAGGSLRLSCAASGNIFSSYAMGWYRQAPGKERELVARITTSAGRTYDADSVKGRFTISRDNAKNTVDLQMNSLKPEDTPVYYCAVDWYGSYGYGGSQNSDYWGQGTQVTVSS”, the entry is “high polyreactivity”; as for “QVQLVESVGGLVQAGGSLRLSCAASGNTFRRNVMGLYRQAPGKERELVAAINRGGSTYYADSVKGRFTISRDNAKNTVYLQMNSLKPEDTAVYYCNAVTRGYYHEMEYWGQGTQVTVSS”, “high polyreactivity”. As to “QVQLVESVGGLVQAGGSLRLSCAASGRIFDSYTMGWYRQAPGKERELVAAISRGGGSTYYADSVKGRFTISRDNAKYTVYLQMNSLKPEDTAVYYCAASSYLNSRFKFDYWGQGTQVTVSS”, the “polyreactivity (PSR sort gate)” value is “low polyreactivity”.

As to “QVQLVESVGGLVQAGGSLRLSCAASGRIFGFSTMGWYRQARGKDRELVATISWSGSGTYYADSVKGRFTISRDNAYNTVYLQMNRLKPEDTAVYYCNADWYYFGYDYWGQGTQVTVST”, the “polyreactivity (PSR sort gate)” value was “low polyreactivity”.

For the sequence “QVQLVESVGGLVQAGGSLRLSCAASGRIFGRYAMGWYRQAPGKESELVAAISTNGGRTYYADSVKGRFTISRDNAKNTVYLQRKSLKPEDNADYYCARAYRGPGYVIRYDYWGQGTQVTVSS”, the “polyreactivity (PSR sort gate)” value is reported as “high polyreactivity”. As for “QVQLVESVGGLVQAGGSLRLSCAASGRIFKWYAMGWYRQAPGKERELVAAITSGGGSTYYADSVKGRFTISRDNAKNTVYLQINSLKPEDTAVYYCNAKAPAEIRSYLRTSRYDYWGQGTQVTVSS”, the entry is “high polyreactivity”; as for “QVQLVESVGGLVQAGGSLRLSCAASGRIFPTYAMGSSRQAPGKERELVAAISRSGGRTYYADSVKGRFTSSRDNAKNTVYLQMNSLKPEDTAVYYCNAEGDPYVDFPSRSTGYDYWGQGTQVTVSS”, “high polyreactivity”.

Take “QVQLVESVGGLVQAGGSLRLSCAASGRIFRFYAMGWYRQAPGKERELVAAISSSGVRTYYADSVKGRFTISRDNAKKTVYLQINSLTPEDTAVYYCAASRHFARHRGYYFRYDYWGQGTQVTVSS”: the “polyreactivity (PSR sort gate)” value is “high polyreactivity”.

As to “QVQLVESVGGLVQAGGSLRLSCAASGRIFRYYAMGWSSQAPGKESELVAAITSDGRTYYADSVKGRFTISRDNAKNTVYLQMNSQKPEDTAVYYCAADHHSYRYGGYYYWGQGTQVTVAS”, the “polyreactivity (PSR sort gate)” value was “low polyreactivity”. Regarding “QVQLVESVGGLVQAGGSLRLSCAASGRTFDGNAMGWYRQAPGKERELVAAIRFNGSTTYYADSVKGRFTISRDNSKNTVYLQMNSLKPEDTAVYYCNKFEGALGGMDYWGQGTQVTVSS”, the “polyreactivity (PSR sort gate)” value is recorded as “low polyreactivity”. As to “QVQLVESVGGLVQAGGSLRLSCAASGRTFGGNAMGWYRQAPGKERELVAVITGSGARTYYADSVKGRFTISRDNAKNTVYLQMNSLKPEDTAVYYCAAAGYSGQYRSYYWGQGTQVTVSS”, the “polyreactivity (PSR sort gate)” value was “high polyreactivity”.
